Laboratory results reported in patent US20130302375A1, “MODULATION OF ANTIGEN IMMUNOGENICITY BY ADDITION OF EPITOPES RECOGNIZED BY NKT CELLS” (IMNATE SARL, priority 2010, published 2013).
Substitutions are numbered along the chain they refer to.

B1: ova of SEQ ID4: ovalbumin with H22 and K187 mutated to F, generating new CD1d binding motifs (protein, listed as Gallus sp.)
chain: MGSIGAASMEFCFDVFKELKVFHANENIFYCPIAIMSALAMVYLGAKDSTRTQINKVVRFDKLPGFGDSIEAQCGTSVNVHSSLRDILNQITKPNDVYSFSLASRLYAEERYPILPEYLQCVKELYRGGLEPINFQTAADQARELINSWVESQTNGIIRNVLQPSSVDSQTAMVLVNAIVFKGLWEFTFKDEDTQAMPFRVTEQESKPVQMMYQIGLFRVASMASEKMKILELPFASGTMSMLVLLPDEVSGLEQLESIINFEKLTEWTSSNVMEERKIKVYLPRMKMEEKYNLTSVLMAMGITDVFSSSANLSGISSAESLKISQAVHAAHAEINEAGREVVGSAEAGVDAASVSEEFRADHPFLFCIKHIATNAVLFFGRCVSP
B2: ova of SEQ ID3: ovalbumin (chicken) in natural sequence (protein, listed as Gallus sp.)
chain: B1 chain with F22H, F187K
B3: Der p 2 of SEQ ID8: Der p 2 with the CD1d binding motif FAALAAF added at the carboxyterminal end (protein, listed as Dermatophagoides pteronyssinus)
chain: DQVDVKDCANHEIKKVLVPGCHGSEPCIIHRGKPFQLEAVFEANQNSKTAKIEIKASIDGLEVDVPGIDPNACHYMKCPLVKGQQYDIKYTWNVPKIAPKSENVVVTAKVMGDDGVLACAIATHAKIRDFAALAAF

Assays:
EG7 tumor cells = assay: EG7 tumor growth in preimmunized mice; format: in vivo; conditions: mice preimmunized subcutaneously in alum on 4 occasions, then engrafted with 10^6 EG7 tumor cells in the flank
Experimental: Immunization of mice with ova of SEQ ID4 was carried out using […] of ova in alum administered subcutaneously on 4 occasions separated by an interval of 10 days. A control group was immunized with ova in natural sequence (SEQ ID3). All mice were then engrafted with 10^6 EG7 tumor cells injected in the flank and the growth of the tumor was followed over time.

EG7 cells = assay: In vitro killing of EG7 cells by NKT cells from immunized mice (Annexin V / 7-AAD); format: cell-based; conditions: 18 h at 37° C. with NKT cells from immunized mice, ratios 1/1 to 1/5 (EG7 versus NKT)
Experimental: In vitro killing of EG7 cells was evaluated using NKT cells prepared from the spleen using magnetic bead sorting. The NKT cells were first stimulated for 4 h in vitro with antigen-presenting cells loaded with ova of SEQ ID4. EG7 cells were labeled at membrane level with 1 μM DiOC18 (3,3′-dioctadecycloxacarbocyanine perchlorate from Invitrogen). EG7 cells (1×10^5 per well) were then cultured for 18 h at 37° C. in the presence of NKT cells obtained from each one of the 2 mouse groups, using ratios of 1/1 to 1/5 (EG7 cells versus NKT cells). After 18 h, cells were harvested and stained for Annexin V and 7-AAD following manufacturer's instructions (Apoptosis Detection kit; BD Biosciences) and analyzed on a FACSCantoII flow cytometer (BD Biosciences).

[1] = test system: class II restricted CD4+ T cells; assay: Proliferation of CD4+ T cells from immunized mice cultured with dendritic cells from CD1d KO mice; format: cell-based, C57BL/6 mice; conditions: 10^6 cells/well with dendritic cells from syngeneic CD1d KO mice
Experimental: Further, CD4+ T cells were prepared from the spleen of each mouse from the 2 groups, using magnetic bead sorting. Such cells (10^6 cells/well) were cultured with dendritic cells prepared from syngeneic CD1d KO mice. Such cells can only activate class II restricted CD4+ T cells. It is observed that cells obtained from mice immunized with Der p 2 of SEQ ID8 proliferate with a stimulation index 4-fold higher than cells obtained from mice immunized with native Der p 2 (SEQ ID7).

anti-Der p 2 antibodies = assay: Specific anti-Der p 2 antibodies by direct binding ELISA after immunization; format: in vivo, C57BL/6 mice; conditions: 50 μg protein in alum subcutaneously 4 times at 10 days intervals
Experimental: Two groups of C57BL/6 mice (H-2b) were immunized with either native Der p 2 (SEQ ID7) or native Der p 2 wherein a CD1d binding motif had been added (SEQ ID8), using 50 μg of protein in alum injected subcutaneously 4 times at 10 days intervals. Mice were then bled and the concentration of specific anti-Der p 2 antibodies was tested by direct binding ELISA. It is observed that the concentration of antibodies is 10-fold higher in the group of mice immunized with Der p 2 of SEQ ID8.

Molecule	tumor rejection (EG7 tumor cells)	apoptosis of EG7 cells (EG7 cells)	stimulation index of CD4+ T cell proliferation, versus cells from mice immunized with native Der p 2 (SEQ ID7) [1]	concentration of specific anti-Der p 2 antibodies, versus mice immunized with native Der p 2 (SEQ ID7) (anti-Der p 2 antibodies)
B1	rejected the tumor	induced into apoptosis		
B2	did not	did not induce a significant degree of tumor cell apoptosis		
B3			4 fold	10 fold
